The values below come from paper PMC8100066 (2021).

In this test the target is mouse CSL (amino acid residues 53-474), conserved and structurally ordered core domain (mouse, UniProt P31266 53-474). Description: ITC.
Chain of mouse CSL (amino acid residues 53-474), conserved and structurally ordered core domain (P31266 53-474): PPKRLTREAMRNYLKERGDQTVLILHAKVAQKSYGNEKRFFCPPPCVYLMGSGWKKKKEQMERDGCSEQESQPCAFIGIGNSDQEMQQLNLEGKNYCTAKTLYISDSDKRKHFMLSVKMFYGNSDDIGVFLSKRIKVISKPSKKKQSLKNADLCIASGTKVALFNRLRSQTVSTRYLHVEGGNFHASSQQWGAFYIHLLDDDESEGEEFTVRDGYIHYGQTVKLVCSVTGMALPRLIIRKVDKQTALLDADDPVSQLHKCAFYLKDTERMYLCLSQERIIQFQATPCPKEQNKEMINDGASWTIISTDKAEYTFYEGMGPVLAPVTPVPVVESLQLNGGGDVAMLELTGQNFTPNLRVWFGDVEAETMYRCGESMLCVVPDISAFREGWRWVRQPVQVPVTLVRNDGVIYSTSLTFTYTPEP

B1: human NOTCH1 RAM peptide (residues 1754-1781) (peptide)
peptide: VLLSRKRRRQHGQLWFPEGFKVSEASKK
Regarding B1, the Ka was 4.63e+07 M⁻¹.

B2: human NOTCH3 RAM peptide (residues 1665-1682), nonphosphorylated (peptide)
peptide: ARRKREHSTLWFPEGFKV
For the molecule B2, the Ka was 5.49e+06 M⁻¹.
